These results are taken from US20150165065A1 (AVIDBIOTICS, published 2015).

Read-outs that look alike come from different tables or passages of the source.

Test [1] deals with T1, integrin αVβ5 (UniProt P06756 31-992; P18084 24-719).
T1 construct: Coated on the ELISA plate
Put plainly: ELISA, coated integrin, anti-MICA-HRP. Here is the method:
(§1) The ability of the soluble MICA molecules in each of the concentrated supernatants to bind target molecules was assayed by an ELISA using the intended target proteins, integrin αVβ3 or αVβ5, as capture agents on the ELISA plate. After the respective integrins were adhered to the bottoms of the wells of the ELISA plate, the wells were washed and blocked, as well known in the field. Each sample (100 μl) of soluble MICA produced and secreted by 293T cells was added to wells containing αVβ3 or αVβ5, incubated and washed. The soluble MICA molecules captured by the integrins were detected by HRP-conjugated antibody to human MICA developed with Ultra TMB-ELISA substrate and the optical densities read. The quantity of soluble MICA in each sample was determined by the MICA-specific ELISA. […] The ELISA signal from a non-binding, negative control MICA (generated by pSW273) was subtracted from each integrin binding signal.

Test [2] has as its target T2, integrin αVβ3 (UniProt P06756 31-992; P05106 27-718).
T2 construct: Coated on the ELISA plate
As to the kind of experiment: ELISA, coated integrin, anti-MICA-HRP. Here is the method:
as §1

In test [3] the target is T1, integrin αVβ5. Put plainly: ELISA, coated integrin, anti-MICA-HRP. Here is the method:
(§2) ELISA assays of the integrin target-binding of soluble MICA molecules generated from pKK128-131 were performed as follows. After the respective integrins were adhered to the bottoms of the wells of the ELISA plate, the wells were washed and blocked. Each sample (100 μl) of culture supernatant was added to wells containing αVβ3 or αVβ5, incubated and washed. The soluble MICA molecules captured by the integrins were detected by HRP-conjugated antibody to human MICA developed with Ultra TMB-ELISA substrate and the optical densities read. The quantity of soluble MICA in each sample was determined by the MICA-specific ELISA.
This is another data set of the same source.

The target in test [4] is T2, integrin αVβ3. Put plainly: ELISA, coated integrin, anti-MICA-HRP. Here is the method:
as §2
The source holds these as a separate data set.

Test [5] concerns the target T1, integrin αVβ5. Put plainly: phage ELISA, coated integrin, anti-M13-HRP. Here is the method:
(§3) The phage vectors were independently transformed into NEBαF′tet competent E. coli cells. Phages produced by the transformed cells were tittered and their concentrations adjusted by dilution to 10¹³ per ml. The ability of the soluble MICA molecules in each of the phage preparations was assayed by an ELISA using the intended target proteins, integrin αVβ3 or αVβ5, as capture agents on the ELISA plate. After the respective integrins were adhered to the bottoms of the wells of the ELISA plate, the wells were washed and blocked, as well known in the field. Each sample (100 μl) of phage preparation was added to wells containing αVβ3 or αVβ5, incubated and washed. The phages captured by the integrins were detected by HRP-conjugated antibody to the M13 phage coat developed with Ultra TMB-ELISA substrate and the optical densities read.

Test [6] has as its target T2, integrin αVβ3. As to the kind of experiment: phage ELISA, coated integrin, anti-M13-HRP. Here is the method:
as §3

T2 sequence (P06756 31-992, chain 1 of 2): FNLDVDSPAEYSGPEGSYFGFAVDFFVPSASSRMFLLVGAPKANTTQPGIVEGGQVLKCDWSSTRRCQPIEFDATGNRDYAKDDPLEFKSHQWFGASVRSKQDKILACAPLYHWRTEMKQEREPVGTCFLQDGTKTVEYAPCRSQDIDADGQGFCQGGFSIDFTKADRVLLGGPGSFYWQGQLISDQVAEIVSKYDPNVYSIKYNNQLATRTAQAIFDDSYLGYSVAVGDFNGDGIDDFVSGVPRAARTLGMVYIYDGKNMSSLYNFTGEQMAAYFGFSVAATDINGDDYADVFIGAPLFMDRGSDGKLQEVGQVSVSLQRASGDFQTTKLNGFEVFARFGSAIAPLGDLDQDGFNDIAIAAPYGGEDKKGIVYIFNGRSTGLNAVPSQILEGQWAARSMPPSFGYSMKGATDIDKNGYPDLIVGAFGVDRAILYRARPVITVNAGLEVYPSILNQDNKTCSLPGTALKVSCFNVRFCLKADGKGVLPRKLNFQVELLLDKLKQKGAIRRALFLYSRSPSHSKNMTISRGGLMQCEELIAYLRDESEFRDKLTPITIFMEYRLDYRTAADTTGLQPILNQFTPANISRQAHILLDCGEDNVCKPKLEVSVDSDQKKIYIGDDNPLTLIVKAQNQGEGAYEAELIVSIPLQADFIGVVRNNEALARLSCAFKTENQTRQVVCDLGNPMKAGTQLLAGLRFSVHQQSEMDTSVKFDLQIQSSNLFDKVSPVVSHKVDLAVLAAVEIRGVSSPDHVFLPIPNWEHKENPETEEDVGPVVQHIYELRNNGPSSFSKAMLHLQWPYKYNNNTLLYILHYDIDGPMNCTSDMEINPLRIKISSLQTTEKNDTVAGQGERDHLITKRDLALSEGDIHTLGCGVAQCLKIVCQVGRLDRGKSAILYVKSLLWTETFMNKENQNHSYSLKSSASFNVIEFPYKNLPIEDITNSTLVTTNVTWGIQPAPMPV
T2 sequence (P05106 27-718, chain 2 of 2): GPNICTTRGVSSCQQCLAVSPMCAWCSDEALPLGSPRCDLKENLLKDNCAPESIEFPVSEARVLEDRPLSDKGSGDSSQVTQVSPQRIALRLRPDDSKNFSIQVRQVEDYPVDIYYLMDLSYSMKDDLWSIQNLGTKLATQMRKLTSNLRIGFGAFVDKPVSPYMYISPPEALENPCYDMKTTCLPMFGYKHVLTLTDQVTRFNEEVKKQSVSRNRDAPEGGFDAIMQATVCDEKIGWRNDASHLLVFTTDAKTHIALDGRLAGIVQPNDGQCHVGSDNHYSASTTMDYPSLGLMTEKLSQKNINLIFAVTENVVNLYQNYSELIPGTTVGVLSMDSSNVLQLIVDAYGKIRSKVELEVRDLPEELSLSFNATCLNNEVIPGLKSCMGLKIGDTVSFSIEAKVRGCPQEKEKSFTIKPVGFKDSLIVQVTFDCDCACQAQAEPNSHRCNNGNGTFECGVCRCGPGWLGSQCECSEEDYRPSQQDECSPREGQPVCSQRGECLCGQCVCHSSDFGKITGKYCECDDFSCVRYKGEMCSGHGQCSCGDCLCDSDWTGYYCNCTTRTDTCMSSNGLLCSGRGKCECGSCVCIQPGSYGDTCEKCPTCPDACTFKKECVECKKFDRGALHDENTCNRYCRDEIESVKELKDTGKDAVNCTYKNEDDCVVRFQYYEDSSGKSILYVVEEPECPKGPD
T1 sequence (P06756 31-992, chain 1 of 2): as the sequence (P06756 31-992, chain 1 of 2) above
T1 sequence (P18084 24-719, chain 2 of 2): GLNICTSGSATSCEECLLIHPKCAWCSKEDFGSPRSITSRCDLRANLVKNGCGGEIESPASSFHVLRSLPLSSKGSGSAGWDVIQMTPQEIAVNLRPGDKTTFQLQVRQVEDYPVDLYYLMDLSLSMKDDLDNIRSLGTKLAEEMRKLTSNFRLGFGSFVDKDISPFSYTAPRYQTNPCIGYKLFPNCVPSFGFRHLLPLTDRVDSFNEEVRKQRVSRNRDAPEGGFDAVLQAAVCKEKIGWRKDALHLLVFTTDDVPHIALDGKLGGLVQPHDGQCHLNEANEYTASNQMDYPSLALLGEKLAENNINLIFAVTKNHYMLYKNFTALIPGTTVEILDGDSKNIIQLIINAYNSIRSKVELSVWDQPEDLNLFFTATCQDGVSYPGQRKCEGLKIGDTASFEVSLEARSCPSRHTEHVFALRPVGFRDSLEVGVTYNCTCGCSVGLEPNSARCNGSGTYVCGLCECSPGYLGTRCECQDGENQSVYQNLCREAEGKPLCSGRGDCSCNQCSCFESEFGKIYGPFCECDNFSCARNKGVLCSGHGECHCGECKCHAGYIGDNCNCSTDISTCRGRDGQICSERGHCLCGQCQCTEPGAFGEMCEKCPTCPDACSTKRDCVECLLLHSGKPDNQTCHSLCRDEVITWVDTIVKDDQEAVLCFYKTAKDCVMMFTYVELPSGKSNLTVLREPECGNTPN

B1: soluble MICA generated from pKK46 (loop 1 insert extended 5.1sp) (designed binder)
chain: HHHHHHEPHSLRYNLTVLSWDGSVQSGFLTEVHLDGQPFLRCDRQKCRAKPQGQWAEDVLGNKTWDRETRDLTGNGKDLRMTLAHIKDQKEGLHSLQEIRVCEIHEDNSTRSSQHFYYDGELFLSQNLETEEWTMPQSSRAQTLAMNVRNFLKEDAMKTKTHYHAMHADCLQELRRYLKSGVVLRRTVPPMVNVTSGGSGGGSVTRGDTFTQSSGGSGGGVTCRASGFYPWNITLSWRQDGVSLSHDTQQWGDVLPDGNGTYQTWVATRICQGEEQRFTCYMEHSGNHSTHPVPSGK
notes: From pKK34 (His6, Glu125); secreted by 293T cells; also called 1-5.1sp
Turning to B1, the αvβ5 signal in the test with integrin αVβ5 [1] turned out to be 1.06 OD; in the test with integrin αVβ5 [3] it was 0.66 OD. For the same molecule, the αvβ5 signal/ng with integrin αVβ5 [1] came out at 25.5 signal/ng MICA; with integrin αVβ5 [3], 13.3 signal/ng MICA. Further, the αvβ3 signal in the test with integrin αVβ3 [2] was 0.384 OD; with integrin αVβ3 [4] it was 0.467 OD. In addition, the αvβ3 signal/ng was 9.2 signal/ng MICA in the test with integrin αVβ3 [2] and 9.42 signal/ng MICA with integrin αVβ3 [4].

B2: soluble MICA generated by pSW273 (wild type loops, negative control) (ligand)
chain: HHHHHHEPHSLRYNLTVLSWDGSVQSGFLTEVHLDGQPFLRCDRQKCRAKPQGQWAEDVLGNKTWDRETRDLTGNGKDLRMTLAHIKDQKEGLHSLQEIRVCEIHEDNSTRSSQHFYYDGELFLSQNLETEEWTMPQSSRAQTLAMNVRNFLKEDAMKTKTHYHAMHADCLQELRRYLKSGVVLRRTVPPMVNVTRSEASEGNITVTCRASGFYPWNITLSWRQDGVSLSHDTQQWGDVLPDGNGTYQTWVATRICQGEEQRFTCYMEHSGNHSTHPVPSGK
notes: Secreted by 293T cells; six His between signal peptide and residue 1; made from pSW267 (Glu125); also called WT
For B2, the binding result with integrin αVβ5 [1] was “no binding”. Moreover, the binding result with integrin αVβ3 [2] was “no binding”. In the test with integrin αVβ5 [3], this molecule came in with a αvβ5 signal of 0.1 OD and a αvβ5 signal/ng of 6.8 signal/ng MICA. In the test with integrin αVβ3 [4], this molecule yielded a αvβ3 signal of 0.099 OD and a αvβ3 signal/ng of 6.73 signal/ng MICA.

B3: M13 phage pKK107 displaying MICA α3 domain with tight loop 1 insert T-3.1 (designed binder)
chain: TVPPMVNTSRGDHPRTQCRASGFYPWNITLSWRQDGVSLSHDTQQWGDVLPDGNGTYQTWVATRICQGEEQRFTCYMEHSGNHSTHPVPSGK
notes: also called 1-T-3.1; not shown: C-terminal portion of M13 gene III protein, fused at codon position 198
B3 came in with a αvβ5 signal with integrin αVβ5 [5] of 1.49 OD. In the test with integrin αVβ3 [6], this molecule gave a αvβ3 signal of 0.999 OD.

B4: M13 phage pKK110 displaying MICA α3 domain with tight loop 1 insert T-5.1 (designed binder)
chain: TVPPMVNVTRGDTFTQSCRASGFYPWNITLSWRQDGVSLSHDTQQWGDVLPDGNGTYQTWVATRICQGEEQRFTCYMEHSGNHSTHPVPSGK
notes: also called 1-T-5.1; not shown: C-terminal portion of M13 gene III protein, fused at codon position 198
For B4, the αvβ5 signal in the test with integrin αVβ5 [5] was 2.56 OD. The molecule further showed a αvβ3 signal with integrin αVβ3 [6] of 1.49 OD.

B5: M13 phage pKK111 displaying MICA α3 domain with tight loop 1 insert T-5.3 (designed binder)
chain: TVPPMVNHLARGDDLTYCRASGFYPWNITLSWRQDGVSLSHDTQQWGDVLPDGNGTYQTWVATRICQGEEQRFTCYMEHSGNHSTHPVPSGK
notes: also called 1-T-5.3; not shown: C-terminal portion of M13 gene III protein, fused at codon position 198
B5 showed a αvβ5 signal with integrin αVβ5 [5] of 0.657 OD. For the same molecule, in the test with integrin αVβ3 [6], the αvβ3 signal stood at 0.707 OD.

B6: M13 phage pKK108 displaying MICA α3 domain with tight loop 1 insert T-3.5 (designed binder)
chain: TVPPMVNGSRGDSLIMHCRASGFYPWNITLSWRQDGVSLSHDTQQWGDVLPDGNGTYQTWVATRICQGEEQRFTCYMEHSGNHSTHPVPSGK
notes: also called 1-T-3.5; not shown: C-terminal portion of M13 gene III protein, fused at codon position 198
On to B6, for which the αvβ5 signal with integrin αVβ5 [5] is -0.204 OD. In the test with integrin αVβ3 [6], this molecule showed a αvβ3 signal of -0.09 OD.
